In patent US9371374 (AbbVie / Abbott, dated 2016):
Numbering of substitutions follows the chain as printed.

T1: HCV Core1-169 (HCV-1, UniProt P26664 1-169)
T1 construct: also called Solid Phase HCV Core
T1 sequence: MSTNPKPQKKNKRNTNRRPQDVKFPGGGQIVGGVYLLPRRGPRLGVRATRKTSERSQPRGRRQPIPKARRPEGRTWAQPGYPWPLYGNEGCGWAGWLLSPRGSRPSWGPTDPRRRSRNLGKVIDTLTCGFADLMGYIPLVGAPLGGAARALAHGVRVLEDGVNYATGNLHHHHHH

B1: HCV 208B-471 (antibody, V domains shown)
VH: QGQLQQSGPVLVKPGASEILYCKTSGFTFSSTYISWLKQKPGQSLEWIAWIYAGTGATNYNQKFTGKAQLTVDASSNTAYMHFSGLTPEDSAIYYCAISGAGVYWGQGTLVTVSA
VL: DVVMTQTPLSLPVSLGDQASISCRSSQSLLHSNGNTYLEWYLQKPGQSPNLLIYNVSNRFSGVPDRFSGSGSGTDFALKISRVGAEDLGVYYCFQGSHVPLTFGAGTKLELKR
B2: HCV 208B-1096 (antibody, V domains shown)
VH: QVQLQQSGAGLAKPGASVKMSCKASGYTFTANKMHWAKQRPGQGLEWIGYIDPSSGYTEYNHKIQYKATLTADTSSSTAYMQLSTLTFEDSAVYYCTNFAYWGQGTLVTVSA
VL: DIVMTQTPLTLSVTIGQPASISCKSSQSLLFTNGKTYLNWFLQRPGQSPKRLIYLLSKLDSGVPDRFSGSGSGTDFTLKISRVEAEDLGVYYCLQSTYFPLTFGAGTKLELKR
B3: HCV 208B-547 (antibody, V domains shown)
VH: B2 VH with G10E, A31S, H62Q, Q65K, Y66D, T74K, T85S, F88S
VL: EVVLTQSPAITAASLGQKVTITCRASSSVSYMHWYRQKSGTSPQPWIYEISTLASGVPTRFRASGSGTSYSLTISSMEAEDAAIYYCQQWNYPLTFGAGTKLELKR
B4: HCV 208A-110 (antibody, V domains shown)
VH: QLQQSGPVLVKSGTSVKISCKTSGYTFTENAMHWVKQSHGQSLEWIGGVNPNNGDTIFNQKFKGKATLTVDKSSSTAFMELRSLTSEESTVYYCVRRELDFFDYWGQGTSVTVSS
VL: DIVLTQSPASLAVSLGQRATISCRASQSVSTSRYSYMHWYQQKPGQPPKLLIKYASNLESGVPARFSGSGSGTDFTLNIHPVAEEDTAAYYCQHSWEFPFTFGSGTKLEIKR
B5: HCV 208A-557 (antibody, V domains shown)
VH: QGQMQQSGAELVKPGASVKLSCKTSGFTFSSSYISWLKQKPGQSLEWIAWIYAGTGNTNYNQKFTDKAQLTVDTSSSTAYMQLSSLTTEDSAIYYCAISGTGFTYWGQGTLVTVSA
VL: B4 VL with V3A, K49E, A83G, A89T, E97D
B6: HCV 208A-741 (antibody, V domains shown)
VH: QLQQSGPVLVKPGASVMISCKTSGYTFTENAMHWVKQSHGKSLEWIGGVNPNNGDTIFNQKFKGKATLTVDKSSSTAFMELRSLTSEESTVYYCVRRELDFFDYWGQGTSVTVSS
VL: B4 VL with A19T, R24G, Y34F
B7: HCV 208A-293 (antibody, V domains shown)
VH: EVQLQQSGPELVKPGASVKISCKASGFTFTEYAMHWMKQSHGKSLEWIGGINPTNGDAIYNQKFKDKAKLTVDRSSSTAYMELRSLTSDDSALFYCARRELDYFPSWGQGTTLTVSS
VL: B4 VL with A12I, Y34F, M37V, Y40I, A64V, T76I, A83E, A89T, Y91F
B8: HCV 208B-612 (antibody, V domains shown)
VH: EVQLQQSGPELVKPGASVKMSCKASGYRFTSYVMHWVRQKPGQGLEWIGYIDPHNDDTKYSEKFRGKATLTSDKSSTTAYMELSSLTSEDSAVYYCVRYSYDRDYSPMDYWGQGTSVTVSS
VL: QIVLTQSPTLMSASPGEKVTMTCSASSTVTYIYWYQQKPGSSPRLWMYDTFNLVSGVPARFSGSRSGTSYFLTISSMEGEDAATYYCQQYSDSPYTFGGGTKLEIKR
B9: HCV 208B-672 (antibody, V domains shown)
VH: EVKLVESGGSLVQPGGSLKLSCAASGFNFNTYAMSWVRQTPEKRLEWVAYISNGGGNTYYVDTVKGRFTISRDNAKNTLYLRMSSLKSEDTAMYYCARHGLYWGYSMDYWGQGTSVTVSS
VL: DIQMTQSPSSLSASLGERVSLTCRASQDIGGSINWLQQEPDGTIKRLIYATSSLDSGVPKRFSGSRSGSDYSLTISSLESEDFVDYYCLQYASSPPTFGGGTKLEIKR
B10: HCV 208A-207 (antibody, V domains shown)
VH: QGQLQQPGAEFVKPGASLKLSCRASGYTFTSYWIHWVKQRPGQGLEWIGEIDPSDSYINQNQKFRGKATLTVDKSSSTAYMELSGLTSEDSAVYYCARHYYGVLDSWGQGTTLTVSS
VL: DIVLTQSPATLSVTPGDRVSLSCRASQRIYNYLHWYQQKSHESPRLLTKYASQSISGIPSRFSGSGSGTDFILTINSVETEDFGMYFCQQSNSWPLTFGAGTKLELRR
B11: HCV 208A-134 (antibody, V domains shown)
VH: B5 VH with V12A
VL: EVLMTQSPLSLPVSLGDQASISCRSSQSLEHTNGNTYLEWFLQRPGQPPKLLIYKVSSRFSGVPDRFSGSGSGTDFTLKISRVEAEDLGVYYCFQGSHVPFTFGSGTKLAIKR
B12: HCV 208B-189 (antibody, V domains shown)
VH: QVHLQQSGAELAKPGASVQMSCKASGYTFTANKMHWARQRPRQGLEWIGYIDPASGYTEYNQKIKDRATLTADKSSSTAYMQLSSLTSEDSAVYYCTNFAYWGQGTLVTVST
VL: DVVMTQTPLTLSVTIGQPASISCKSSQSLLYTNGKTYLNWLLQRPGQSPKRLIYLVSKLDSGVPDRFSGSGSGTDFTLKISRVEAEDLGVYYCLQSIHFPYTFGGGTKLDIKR
B13: HCV 208A-692 (antibody, V domains shown)
VH: B5 VH with V12A, Y52F
VL: B11 VL with T32S

target: HCV Core 134-171-TT peptide (ALRZ-9 peptide) (HCV-1); assay: SPR, captured mAb;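 also: Anti-HCV Core mAbs from hybridoma supernatants held on a rabbit anti-mouse IgG CM5 surface, peptide flowed over 3 min then 4 min dissociation, duplicate concentrations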

Binder | Kd [pM] | koff [s⁻¹] | kon [M⁻¹ s⁻¹]
B1 | 250 | 5.5e-05 | 220000
B2 | 460 | 0.0006 | 1.3e+06
B3 | 3200 | 0.0049 | 1.6e+06
B4 | 330 | 0.00055 | 1.7e+06
B5 | 91 | 0.00021 | 2.4e+06
B6 | 410 | 0.00069 | 1.7e+06
B7 | 110 | 0.00023 | 2.1e+06
B8 | 350 | 6.5e-05 | 180000
B9 | 160 | 0.00034 | 2.2e+06
B10 | < 32 | < 1e-05 | 310000
B11 | 2100 | 3.8e-05 | 18000
B12 | 170 | 0.00015 | 880000

target: T1, HCV Core1-169; assay: sandwich EIA, capture C11-7

Binder | OD492 [OD]
B2 | 1.06
B4 | 0.18
B5 | 0.22
B6 | 2.36
B7 | 2.87
B8 | 1.52
B10 | 2.47
B13 | 2.92

target: T1, HCV Core1-169; assay: sandwich EIA, capture C11-9

Binder | OD492 [OD]
B2 | 0.33
B4 | 0.13
B5 | 0.14
B6 | 2.13
B7 | 2.6
B8 | 0.64
B10 | 2.2
B13 | 2.66

target: T1, HCV Core1-169; assay: sandwich EIA, NC capture mAb; also: test concentration or dose not given here

Binder | OD492 [OD]
B2 | 0.17
B4 | 0.15
B5 | 0.18
B6 | 0.29
B7 | 0.37
B8 | 0.21
B10 | 0.37
B13 | 0.4

target: T1, HCV Core1-169; assay: sandwich EIA, capture 208A-110

Binder | OD492 [OD]
B2 | 0.19
B4 | 0.18
B5 | 0.44
B6 | 0.42
B7 | 0.52
B8 | 0.26
B10 | 0.38
B13 | 0.54

target: T1, HCV Core1-169; assay: sandwich EIA, capture 208A-293

Binder | OD492 [OD]
B2 | 0.24
B4 | 0.2
B5 | 0.41
B6 | 0.42
B7 | 0.49
B8 | 0.28
B10 | 0.42
B13 | 0.51

target: T1, HCV Core1-169; assay: sandwich EIA, capture 208A-557

Binder | OD492 [OD]
B2 | 0.17
B4 | 0.17
B5 | 0.32
B6 | 0.4
B7 | 0.52
B8 | 0.23
B10 | 0.82
B13 | 0.53

target: T1, HCV Core1-169; assay: sandwich EIA, capture 208A-692

Binder | OD492 [OD]
B2 | 0.15
B4 | 0.14
B5 | 0.13
B6 | 0.32
B7 | 0.34
B10 | 0.42
B13 | 0.35

target: T1, HCV Core1-169; assay: sandwich EIA, capture 208B-741

Binder | OD492 [OD]
B2 | 0.23
B4 | 0.2
B5 | 0.38
B6 | 0.36
B7 | 0.5
B8 | 0.23
B10 | 0.3
B13 | 0.44

target: T1, HCV Core1-169; assay: sandwich EIA, capture 208B-1096

Binder | OD492 [OD]
B2 | 0.26
B4 | 0.21
B5 | 0.35
B6 | 0.52
B7 | 0.41
B8 | 0.7
B10 | 0.33
B13 | 0.38

target: T1, HCV Core1-169; assay: sandwich EIA, capture 208A-207-271

Binder | OD492 [OD]
B2 | 0.18
B4 | 0.17
B5 | 0.18
B6 | 0.33
B7 | 0.39
B8 | 0.24
B10 | 0.36
B13 | 0.39

target: T1, HCV Core1-169; assay: sandwich EIA, capture 208B-395-334

Binder | OD492 [OD]
B2 | 0.2
B4 | 0.22
B5 | 0.28
B6 | 0.34
B7 | 0.44
B8 | 0.83
B10 | 0.37
B13 | 0.44

target: T1, HCV Core1-169; assay: sandwich EIA, capture 208B-612-226

Binder | OD492 [OD]
B2 | 0.24
B4 | 0.2
B5 | 0.25
B6 | 0.29
B7 | 0.37
B8 | 0.23
B10 | 0.33
B13 | 0.37
